From patent publication US20220226375A1 (CRISPR THERAPEUTICS, published 2022)
Values belong to the binder of their own block, whether it stands above or below them.

Columns and labels:
[1] = target: T1, CD33 protein (AcroBiosystems) conjugated to biotin (UniProt P20138 18-259, biotinylated (site not stated)); assay: flow cytometry; cell-surface CAR on edited T cells labelled with biotinylated CD33 protein and streptavidin-APC
T1 construct: Soluble bought reagent used at 2 ug/uL with streptavidin-APC to label cell-surface anti-CD33 CAR; also called biotinylated CD33 protein, CD3-H82E7
Method: About one (1) week post electroporation, gene-edited T cells were analyzed by flow cytometry to assess the percentage of the cell population that expressed an anti-CD33 CAR. Labeling of cell-surface anti-CD33 CAR was done with a combination of a CD33 protein (AcroBiosystems) conjugated to biotin and a streptavidin-APC secondary reagent (FIG. 1A, FIG. 1B and FIG. 1C). […] In contrast, certain T cells generated with a TRAC and B2M gene disruption and a CAR construct did result in a high percentage of the population that expressed an anti-CD33 CAR. […] However, not all T cells prepared with a CAR construct had CAR expression. […] Indeed, this outcome was not altered by switching the CAR co-stimulatory domain (e.g., CTX-964 compared to CTX-964b).

[2] = target: CD33 on the surface of human cells (AML cell lines THP-1, KG-1, MV4-11; activated primary human T cells) (human, UniProt P20138 18-364); assay: cell-based or functional assay
CD33 on the surface of human cells (AML cell lines THP-1, KG-1, MV4-11; activated primary human T cells), sequence (P20138 18-364): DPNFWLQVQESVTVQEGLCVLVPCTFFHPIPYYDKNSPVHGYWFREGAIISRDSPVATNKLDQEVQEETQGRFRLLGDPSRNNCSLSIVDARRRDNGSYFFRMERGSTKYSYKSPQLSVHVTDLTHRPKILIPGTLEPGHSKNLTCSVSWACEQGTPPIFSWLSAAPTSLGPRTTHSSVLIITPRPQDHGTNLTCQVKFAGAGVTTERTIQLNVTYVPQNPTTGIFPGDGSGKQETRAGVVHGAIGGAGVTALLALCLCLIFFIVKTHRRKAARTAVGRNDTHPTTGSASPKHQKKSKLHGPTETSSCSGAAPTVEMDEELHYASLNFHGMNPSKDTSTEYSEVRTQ

T1 sequence (P20138 18-259 limits assumed): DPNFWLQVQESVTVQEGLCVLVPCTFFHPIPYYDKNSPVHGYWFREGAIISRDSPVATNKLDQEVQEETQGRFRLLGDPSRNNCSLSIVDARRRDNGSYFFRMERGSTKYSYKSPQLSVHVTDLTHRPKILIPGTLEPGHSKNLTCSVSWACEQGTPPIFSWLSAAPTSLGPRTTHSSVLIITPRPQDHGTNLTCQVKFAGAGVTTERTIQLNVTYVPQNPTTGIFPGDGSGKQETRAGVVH

binding result [1]: binds
B1: CTX-982 CAR (anti-CD33 CAR, Antibody C scFv VH-VL, CD28 co-stimulatory domain, CD3z) (other)
chain: EVQLVQSGAEVKKPGSSVKVSCKASGYTITDSNIHWVRQAPGQSLEWIGYIYPYNGGTDYNQKFKNRATLTVDNPTNTAYMELSSLRSEDTAFYYCVNGNPWLAYWGQGTLVTVSSGGGGSGGGGSGGGGSDIQLTQSPSTLSASVGDRVTITCRASESLDNYGIRFLTWFQQKPGKAPKLLMYAASNQGSGVPSRFSGSGSGTEFTLTISSLQPDDFATYYCQQTKEVPWSFGQGTKVEVKSAAAFVPVFLPAKPTTTPAPRPPTPAPTIASQPLSLRPEACRPAAGGAVHTRGLDFACDIYIWAPLAGTCGVLLLSLVITLYCNHRNRSKRSRLLHSDYMNMTPRRPGPTRKHYQPYAPPRDFAAYRSRVKFSRSADAPAYQQGQNQLYNELNLGRREEYDVLDKRRGRDPEMGGKPRRKNPQEGLYNELQKDKMAEAYSEIGMKGERRRGKGHDGLYQGLSTATKDTYDALHMQALPPR

percent cell lysis of CD33 KO MV4-11 cells (CD33-deficient comparison) at 1:1 ratio [2]: > 60%
B2: CTX-982b CAR (anti-CD33 CAR, Antibody C scFv VH-VL, 41BB co-stimulatory domain, CD3z) (other)
chain: EVQLVQSGAEVKKPGSSVKVSCKASGYTITDSNIHWVRQAPGQSLEWIGYIYPYNGGTDYNQKFKNRATLTVDNPTNTAYMELSSLRSEDTAFYYCVNGNPWLAYWGQGTLVTVSSGGGGSGGGGSGGGGSDIQLTQSPSTLSASVGDRVTITCRASESLDNYGIRFLTWFQQKPGKAPKLLMYAASNQGSGVPSRFSGSGSGTEFTLTISSLQPDDFATYYCQQTKEVPWSFGQGTKVEVKSAAAFVPVFLPAKPTTTPAPRPPTPAPTIASQPLSLRPEACRPAAGGAVHTRGLDFACDIYIWAPLAGTCGVLLLSLVITLYCNHRNRKRGRKKLLYIFKQPFMRPVQTTQEEDGCSCRFPEEEEGGCELRVKFSRSADAPAYQQGQNQLYNELNLGRREEYDVLDKRRGRDPEMGGKPRRKNPQEGLYNELQKDKMAEAYSEIGMKGERRRGKGHDGLYQGLSTATKDTYDALHMQALPPR

binding result [1]: binds
B3: CTX-969 CAR (anti-CD33 CAR, Antibody B scFv VH-VL, CD28 co-stimulatory domain, CD3z) (other)
chain: QVQLVQSGAEVKKPGASVKVSCKASGYTFTNYDINWVRQAPGQGLEWIGWIYPGDGSTKYNEKFKAKATLTADTSTSTAYMELRSLRSDDTAVYYCASGYEDAMDYWGQGTTVTVSSGGGGGSGGGGSGGGGSDIQMTQSPSSLSASVGDRVTINCKASQDINSYLSWFQQKPGKAPKTLIYRANRLVDGVPSRFSGSGSGQDYTLTISSLQPEDFATYYCLQYDEFPLTFGGGTKVEIKSAAAFVPVFLPAKPTTTPAPRPPTPAPTIASQPLSLRPEACRPAAGGAVHTRGLDFACDIYIWAPLAGTCGVLLLSLVITLYCNHRNRSKRSRLLHSDYMNMTPRRPGPTRKHYQPYAPPRDFAAYRSRVKFSRSADAPAYQQGQNQLYNELNLGRREEYDVLDKRRGRDPEMGGKPRRKNPQEGLYNELQKDKMAEAYSEIGMKGERRRGKGHDGLYQGLSTATKDTYDALHMQALPPR
